Results published in PMC3153463.

Molecular target: H103C mutant of RAV-1 IN CCD (RAV-1 IN CCD_(H103C)), residues 53-199 (Rous-associated virus type 1 (RAV-1))
Assay: cross-linking; engineered Cys103-Cys103 disulfide bond; denaturing SDS-PAGE in non-reducing conditions; mass spectrometry (MALDI-TOF) of tryptic peptides

**Q.** For “H103C mutant of RAV-1 IN CCD (RAV-1 IN CCD_(H103C)), residues 53-199 (domain or fragment)”, which stoichiometry N is on record?
**A.** 2
